Source: CN114426574A (WUHAN VIRUS INST OF CHINESE ACADEMY OF SCIENCES, dated 2022)

B1: Fab F1-B3 (Fab, V domains shown)
VH: QVQLQESGGGLVQPGGSLRLSCAASGFTVSSNYMSWVRQAPGEGLEWVSSISSSSSYIYYADSVKGRFTISRDNAKNSLYLQMNSLRAEDTAVYYCARGKWLRGAFDIWGQGTTVTVSS
VL: NFMLTQPHSMSESPGKTVTISCTGSSGSIANNYVQWYRQRPGSAPITVIYEDNQRPSGVPDRFSGSIDSSSNSASLTISGLKTEDEADYYCQSYDSSTHWVFGGGTKLTVLG
B2: Fab F1-B5 (Fab, V domains shown)
VH: EVQLVQSGGGVVQPGRSLRLSCAASGFTVSSNYMSWVRQAPGKGLEWVSVIYSGGSTYYADSVKGRFTISRDNSKNTLYLQMNSLRAEDTAVYYCARGDGSDDYYYGMDVWGQGTTVTVSS
VL: QAVLTQPSSVSGAPGQRVTISCTGSSSNVGAGYDVHWYQQLPGTAPKLLIYGNSNRPSGVPDRFSGSKSGTSASLAITGLQAEDEADYYCQSYDSSLSGSVFGGGTKLTVLG

Molecular target: WH-RBD-TFc (SARS-CoV-2 spike glycoprotein receptor binding domain, thrombin site, human IgG1 Fc fusion) (SARS-CoV-2; human, UniProt P0DTC2 319-541)

Row | Binder | EC50
1 | B1 | 12 nM
2 | B2 | 63 nM
